Literature values in US5874218.

Test system: T1, VEGF165 (Homo sapiens), P15692-4
T1 sequence: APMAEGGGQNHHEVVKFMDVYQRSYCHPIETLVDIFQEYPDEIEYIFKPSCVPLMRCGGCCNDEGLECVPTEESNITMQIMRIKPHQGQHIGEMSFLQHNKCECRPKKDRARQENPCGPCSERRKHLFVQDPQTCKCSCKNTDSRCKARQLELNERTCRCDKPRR
Conditions: modified to be nuclease resistant (Green et al. 1995); CITED; value stated for the ligand with reference to Green et al. 1995

In the case of “NTTTTACCCUGAUGGUAGACGCCGGGGUGTTTTT [NX-244]”, the Kd is listed as 0.14 nM.
